Among the data in the RNAGym collection of RNA variant scans (doi:10.7554/elife.80360) are self-cleavage values, retold here.

To fix the notation:
B1: Hairpin Ribozyme (parent)
chain: GUCCUCUUUCACGUGCGCGUGAAAGAGAGAAGUGAACCAGAGAAACACACGUUGUGGUAUAUUACCUGGUA

In this data set the parent is B1. In words: self-cleavage, relative activity (ratio to wild type); higher = more cleavage; co-transcriptional.
With A61U U62C, the self-cleavage came out at 0.197. Next, C50G C65U: 0.0289. For G1A U58A the value was 0.186.

In the case of C6U G51A, the self-cleavage was found to be 0.816. For A24U A45G the value was 0.241.

On to C4G U67A, for which the self-cleavage was 0.111.

Take U2G G15C: the self-cleavage was 0.342. For G15C U67G, the self-cleavage is 0.294. For G25A G69A the value was 0.238; for U7G A43G, 0.023. For G56U U62G the value was 0.104. Next, A49U C65U: 0.0248; C3A A59U: 0.126.

As for G27C A35C, the self-cleavage is 0.143. Next, G19U G54U: 0.497; A47U U70A: 0.276; U5A C65A: 0.22. For U5A C65U the value was 0.222; for C3U U58C, 0.738.

On to G42C U52G, for which the self-cleavage was 0.237. As for C16G C38G, the self-cleavage came to 0.191.

For the variant U2C G56C, the self-cleavage stood at 0.166. Take G17A G29C: the self-cleavage was determined as 0.169. Next, C3G C50G: 0.127.

In the case of G29A A64C, the self-cleavage is 0.115. Consider A64U G68A, for which the self-cleavage was found to be 0.173. For the variant A24U G27C, the self-cleavage worked out at 0.194. Next, U2A G21U: 0.271.

Turning to G13C U20G, the self-cleavage came to 0.531. For the variant A47U C66G, the self-cleavage is 0.116. For G27C G51A the value was 0.266. For A26C G34U the value was 1.03. For C10U U58A the value was 0.533. Consider U9A U20A, for which the self-cleavage turned out to be 0.605. For A59U U67A the value was 0.141; for C10A C18G, 0.791; for G27U A47U, 0.192. For C18U A35G the value was 0.986. Next, C46G C65U: 0.107; C12A U60G: 0.459. Turning to A30G G32A, the self-cleavage was determined as 0.137.

On to U14G G57C, for which the self-cleavage worked out at 0.0955. Next, A41G U53A: 1.1. Regarding C6A U14C, the self-cleavage came out at 0.579. For A30C C65U the value was 0.12; for C38A A59C, 0.103.

In the case of G21U A31C, the self-cleavage was 0.0844. Next, A31C G34C: 0.127; U20A A26C: 0.394; A28G G68U: 0.372. For A11G G42U the value was 0.314; for G34U G42C, 1.17; for A35G C66G, 0.127. Consider A41U U60G, for which the self-cleavage worked out at 1.15. Next, C6G C65U: 0.221; U58A C66A: 0.18; C46U U58A: 0.0874.

Turning to U14G G19C, the self-cleavage worked out at 0.842. Next, A23U G56A: 0.237; U9A G56U: 0.178; G34C G68U: 0.658. Next, A45U U58G: 0.123; G68U G69A: 0.3. Next, G34A A64C: 0.349; A44U A59C: 0.173. As to G13C G40U, the self-cleavage turned out to be 0.158. Next, A36U A59C: 0.228; A41C C48G: 0.199; U2G G56A: 0.0909. Next, U52G U62C: 0.126; G1U C37G: 0.0694.

On to A39U A61C, for which the self-cleavage worked out at 0.187. For C16U A26U the value was 0.817. As to U9A C12U, the self-cleavage was 0.645.

On to A30C C38U, for which the self-cleavage came to 0.209. Turning to G29A A49G, the self-cleavage was 0.138. For U8C C38G the value was 0.154. G1C U67A: the self-cleavage was 0.109.

Turning to A35C G40A, the self-cleavage was found to be 0.208. Next, A36C G51U: 0.678. For U52G U60C the value was 1.08; for C3G G68U, 0.102; for G19C G32A, 0.147. For G1C G25U the value was 0.211; for U58C U63A, 0.212; for U2A U60A, 0.175. Turning to A31G C66A, the self-cleavage worked out at 0.127.

On to G42A G69C, for which the self-cleavage stood at 0.118. For U9C G17C the value was 0.647; for C18G G34A, 1.23; for C4U G69C, 0.204. Next, G32U A44C: 0.112. On to U20C A26C, for which the self-cleavage came out at 0.329. For A30C C50A the value was 0.0998.

For A11C A45G, the self-cleavage came to 0.162.

In the case of U52A U55C, the self-cleavage was 0.438. Next, C46U A47C: 0.149; C18G A61U: 0.247. For G25C A36U the value was 0.397; for C50A G54A, 0.742; for U5A A11G, 0.324. For A30G G42U the value was 0.0793. Take C12G G21A: the self-cleavage came out at 0.683. Next, C6A A64U: 0.163; C6U C16U: 0.971; C12U G56A: 0.177. For U55G A64U the value was 0.158. Next, G27C G54U: 0.192. As for C48G G68U, the self-cleavage came out at 0.163. Next, A11C A23U: 0.6. For G32A U52C the value was 0.101. For U33C U70A the value was 0.0822; for A41C G51A, 1.33; for G15C C46A, 0.136.

On to U8A G21C, for which the self-cleavage is 0.504.

Turning to A26G A30U, the self-cleavage worked out at 0.108.

In the case of C6A G27U, the self-cleavage came to 0.121.

Regarding C4U U8C, the self-cleavage turned out to be 0.241. For G17C U55G the value was 0.196. In the case of U52A U58C, the self-cleavage came out at 0.881. For A43C G54U the value was 0.241.

U7G A49G: the self-cleavage was found to be 0.421. C16A G19U: the self-cleavage worked out at 0.862. Next, G51A C65A: 1.17; U7A U62C: 0.222; G1U A28G: 0.0771. For C18U U33A the value was 0.242; for A26C U52G, 0.409; for C48G U55G, 0.143. For C6G A31G the value was 0.355. Regarding G32A A36G, the self-cleavage came out at 0.0788. Next, U8A G56U: 0.134; G34U A59U: 0.192; A24C U52A: 1.05. Turning to A39C C48U, the self-cleavage came out at 0.145. Consider A24G C66A, for which the self-cleavage worked out at 0.214. For U5C G25A the value was 0.265; for C10G U58G, 0.441. Next, C10U G15A: 0.722. For A24G A44G the value was 0.152; for U33A C37G, 0.182. For the variant U2C A24U, the self-cleavage worked out at 0.107.

On to G15C G27A, for which the self-cleavage turned out to be 0.555. For A22C A71G the value was 0.945; for C18U G32C, 0.142; for U9C U62C, 0.143. Next, U5C A39U: 0.228. Next, C48A U67A: 0.11; C10U C12G: 0.612.

For U9A U14A, the self-cleavage was found to be 0.594. For C16G C50G the value was 0.157; for U5C U55C, 0.2.

As for G51A U52C, the self-cleavage is 0.738. In the case of C12G C38G, the self-cleavage was 0.142. For G34A A45G the value was 0.435.

With A23C C65A, the self-cleavage is 0.818. For A28C C65A the value was 0.231; for A26U G40A, 0.175. For A22C G25U the value was 0.17; for U14G A41U, 1.05; for G21U U52C, 0.764. Next, U5C C66A: 0.143; U14A G25A: 0.56; U5A A22G: 0.308. Consider A31G U58A, for which the self-cleavage is 0.323. For U2G C12A the value was 0.304; for C38G C46A, 0.148.
